Assay results published in article PMC7698382.
Blank lines part the entries; values can stand above or below the substance they belong to.

Assays:
[1] = target: Purified human plasmin (human); test: protease inhibition assay (residual amidolytic activity, tight-binding inhibitor fit); enzyme (plasmin 3 nM; FVIIa/sTF 20 nM; pKLK and FXIa 1 nM each) incubated with inhibitor (10^-1 to 2 x 10^3 nM; up to 3 µM in Figure 3B) for 1 h at room temperature in TBS pH 7.5 (50 mM Tris-HCl, 100 mM NaCl), 0.1 mg BSA/mL, 2 mM Ca2+; synthetic substrate added to 1 KM; Ki corrected for substrate
[2] = target: DIP-δplasmin (active-site blocked δplasmin; recombinant plasmin containing the protease domain and the first kringle domain, treated with DFP); test: SPR; Biacore T100, 25 °C; DIP-δplasmin or tPA amine-coupled to CM5 chip; analyte KD1-Y11T/L17R-K_(COOH) 100 to 2000 nM in HBS-P (20 mM HEPES pH 7.4, 100 mM NaCl, 0.005% P20), 10 µL/min, 6 min association, 10 min dissociation; regenerated with 20 mM EACA; 1:1 binding model, Kd = kd/ka
[3] = target: Tissue plasminogen activator (Alteplase) (UniProt P00750); test: as above
[4] = target: Human factor VIIa in complex with soluble tissue factor (sTF, residues 1-219) (UniProt P08709); test: protease inhibition assay (residual amidolytic activity, tight-binding inhibitor fit); enzyme (plasmin 3 nM; FVIIa/sTF 20 nM; pKLK and FXIa 1 nM each) incubated with inhibitor (10^-1 to 2 x 10^3 nM; up to 3 µM in Figure 3B) for 1 h at room temperature in TBS pH 7.5 (50 mM Tris-HCl, 100 mM NaCl), 0.1 mg BSA/mL, 2 mM Ca2+; synthetic substrate added to 1 KM; Ki corrected for substrate
Plasma kallikrein = Plasma kallikrein (UniProt P03952); test: as above
[5] = target: Purified human factor XIa (human) (UniProt P03951); test: as above

Substance: KD1-Y11T/L17R-K_(COOH) (60-residue double mutant of human TFPI-2 Kunitz domain 1 with C-terminal IEK), expression host not stated for the experiment (domain or fragment)
Kd [2]: 47.6 nM | koff [2]: 7.13e-05 s⁻¹ | kon [2]: 1490 M⁻¹ s⁻¹ | Kd [3]: 35.4 nM | koff [3]: 0.000105 s⁻¹ | kon [3]: 2910 M⁻¹ s⁻¹ | Ki [4]: > 3000 nM | Ki (Plasma kallikrein): > 3000 nM | Ki [5]: > 3000 nM

Substance: KD1-L17R-K_(COOH) (60-residue single mutant of human TFPI-2 Kunitz domain 1 with C-terminal IEK), E. coli expressed (domain or fragment)
Ki [1]: 0.9 nM

Substance: Wild-type KD1 (Kunitz domain 1 of human tissue factor pathway inhibitor type-2) containing the IIa cleavage site (domain or fragment)
Ki [1]: 6 nM

Further substances by falling Ki [1], results first:

Ki [1]: 0.59 nM
Substance: KD1-Y11T/L17R-K_(COOH) (60-residue double mutant of human TFPI-2 Kunitz domain 1 with C-terminal IEK), E. coli expressed (domain or fragment)

Ki [1]: 0.59 nM
Substance: KD1-Y11T/L17R-K_(COOH) (60-residue double mutant of human TFPI-2 Kunitz domain 1 with C-terminal IEK), Pichia pastoris expressed (domain or fragment)
